Experimental findings from publication PMC12241602 are described below.

pKd: −log10 of the molar value.

The first experiment has as its target His6-MadB (class I lantibiotic dehydratase MadB) (Clostridium sp. Maddingley). Nature of the experiment: ITC; 200 uM leader variant in the syringe titrated into 20 uM MadB dimer in the cell, 20 injections of 2 uL, 25 °C, 50 mM HEPES, 500 mM NaCl, pH 7.5.
For “MadL1 (isolated leader peptide of maddinglicin A)”, the pKd was 6.39 and the stoichiometry N (LP per MadB dimer) worked out at 1. Taken in the same sequence, the figures for “MadL2 (leader peptide of MadA with the first five residues of the core peptide)” were 6.49 and 1. In the same order, the values of “MadL3 (leader peptide of MadA with the first ten residues of the core peptide)” are 6.82 and 1.

Another experiment addresses MadB, class I lantibiotic dehydratase of maddinglicin (His6-MadB) (Clostridium sp. Maddingley). Nature of the experiment: ITC; leader variant (200 µM, syringe, 20 injections of 2 µL) titrated into MadB (20 µM of the dimer, cell); 25 °C; 50 mM HEPES, 500 mM NaCl, pH 7.5; N counts leader peptide per MadB dimer; at least triplicate, error S.D.
Take “MadL2, leader peptide of maddinglicin A with the first five residues of the core peptide, residues -23 to +5”: the stoichiometry N amounted to 0.89.

In turn, “MadL1, isolated leader peptide of maddinglicin A (MadA), residues -23 to -1” had a stoichiometry N of 1.21.

The substance “MadL3, leader peptide of maddinglicin A with the first ten residues of the core peptide, residues -23 to +10” showed a stoichiometry N of 0.97. Still for that read-out and setting: the same measure for “MadL2_VSVS, MadL2 with the lysines K-12 and K-10 of the VKVK motif changed to serine (peptide)”: 1.12.
